Residue numbers refer to the chain shown, from its start. In names and notes the source's numbering stands. Each block holds one binder with its values, some of them ahead of it.
What was measured:
[1] = biological target: T1, recombinant human DR3/TNFRSF25 Fc chimera (human, UniProt Q93038 25-199); test: HTRF epitope competition on DR3-Fc; competitor DyLight 650 labelled B9 IgG; mean ± SD of three experiments
T1 construct: extracellular domain; bought (R&D Systems); also called DR3-Fc; hDR3Fc chimera; not shown: human IgG1 Fc
T1 sequence (looked up): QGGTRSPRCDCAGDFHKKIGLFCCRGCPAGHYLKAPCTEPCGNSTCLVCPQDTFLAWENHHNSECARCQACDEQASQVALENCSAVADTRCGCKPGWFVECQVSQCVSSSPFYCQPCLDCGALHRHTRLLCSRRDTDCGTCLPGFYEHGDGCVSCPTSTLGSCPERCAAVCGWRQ

[2] = biological target: T2, human DR3 (TNFRSF25) expressed on cells (human, UniProt Q93038 25-417); test: cell-based or functional assay
T2 sequence: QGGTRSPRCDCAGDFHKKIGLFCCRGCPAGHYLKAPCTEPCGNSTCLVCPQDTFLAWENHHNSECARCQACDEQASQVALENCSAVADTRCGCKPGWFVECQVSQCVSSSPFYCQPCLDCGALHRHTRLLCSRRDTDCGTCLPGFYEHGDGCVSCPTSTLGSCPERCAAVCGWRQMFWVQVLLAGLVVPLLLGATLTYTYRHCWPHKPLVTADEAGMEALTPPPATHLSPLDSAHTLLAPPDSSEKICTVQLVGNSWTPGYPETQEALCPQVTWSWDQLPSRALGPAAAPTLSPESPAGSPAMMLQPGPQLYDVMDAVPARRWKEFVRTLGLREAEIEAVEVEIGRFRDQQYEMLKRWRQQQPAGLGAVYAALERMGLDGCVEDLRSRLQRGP

DR3-8i [3] = biological target: T3, DR3-8i (human); test: BLI, IgG captured on protein A, DR3-8i in solution; Experiment 1
T3 construct: also called purified monomeric DR3-8i antigen protein
T3 chain: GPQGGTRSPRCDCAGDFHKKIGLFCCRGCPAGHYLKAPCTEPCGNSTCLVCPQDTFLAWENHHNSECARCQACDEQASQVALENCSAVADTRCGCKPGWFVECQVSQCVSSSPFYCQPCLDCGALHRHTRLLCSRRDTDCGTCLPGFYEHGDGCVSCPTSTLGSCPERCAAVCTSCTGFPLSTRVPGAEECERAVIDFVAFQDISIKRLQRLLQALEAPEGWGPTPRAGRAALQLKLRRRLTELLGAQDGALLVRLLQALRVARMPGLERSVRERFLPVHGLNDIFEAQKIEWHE

DR3-8i [4] = biological target: T3, DR3-8i; test: BLI, IgG captured on protein A, DR3-8i in solution; Experiment 2
DR3-8i [5] = biological target: T3, DR3-8i; test: BLI, IgG captured on protein A, DR3-8i in solution; Average
[6] = biological target: T1, recombinant human DR3/TNFRSF25 Fc …; test: SPR (Biacore), His-tagged hDR3-Fc captured by anti-His mAb, bivalent fit; apparent KD

B1: B9-hIgG1 (antibody, V domains shown)
VH: EVQLVESGGGLVKPGGSLKLSCSASGFTFSSYAMSWVRQTPEKRLEWVATISDGDSYSYFPDSVKDRFIISRDNAKNNLFLQMSHLRSEDTAMYYCTRDRIYGSVQYYAMDYWGQGTSVTVSS
VL: DIVLTQSPASLAVSLGQRATISCRASESVEFSGTSLMQWYQQRPGLPPKLLIYAASNVESGVPARFSGSGSGTDFSLNIHPVEEDDIAMYFCQQSRKLPYTFGGGTKLEIN
notes: chimeric: mouse B9 variable regions, human IgG1; also called B9-H1; Non-humanised B9
IC50 [1]: 0.252 nM
EC50 (pM), DR3 Jurkat reporter [2]: 457 pM
Kd (DR3-8i [3]): 0.327 nM
Kd (DR3-8i [4]): 0.19 nM
Kd (DR3-8i [5]): 0.259 nM

B2: B9 mIgG2A (antibody, V domains shown)
VH: B1 VH
VL: B1 VL
notes: parental mouse IgG2a, kappa; also called B9-M2A; murine anti-hDR3 mAb clone B9
Kd [6]: 0.561 nM

B6: F10 mIgG1 (antibody, V domains shown)
VH: EVQLVESGGDLVKPGGSLKLSCAASGFSFSAYAMSWVRQTPEKILEWVATISDGDPYTYYPDNVKGRFTISRDNARNNLYLQMSHLRSEDTAIYYCTRERNDYDQYYTMDYWGQGTSVTVSS
VL: DIVLTQSPASLVVSLGQRATISCRASKSVSTSGYNYLHWYQQTPGQPPKLLIYLASNLESGVPARFSGSGSGTDFTLNIHPVEEEDVATYYCQHSRELPWTFGRGTKLEIKR
notes: parental mouse IgG1; also called F10-M1; murine anti-hDR3 mAb clone F10
Kd [6]: 1.07 nM

The next lines start with the values.

IC50 [1]: 0.447 nM
EC50 (pM), DR3 Jurkat reporter [2]: 331 pM
Signal (FLU) [2]: 2.47e+06 FLU
Kd (DR3-8i [3]): 0.001 nM
B3: VHg1/VLg11 (antibody, human IgG1, V domains shown)
VH: QVQLVQSGGGLVQPGGSLRLSCAASGFTFSSYAMSWVRQAPGKGLEWVSTISDGDSYSYFPDSVKDRFTISRDNSKNTLYLQMNSLRAEDTSVYYCARDRIYGSVQYYAMDYWGQGTLVTVSS
VL: DIVMTQSPDSLAVSLGERATINCRASESVEFSGTSLMQWYQQKPGQPPKLLIYAASNVESGVPDRFSGSGSGTDFTLTISSLQAEDVAVYYCQQSRKLPYTFGQGTKLEIK
notes: human IgG1; also called H1L11; VHg1/VL11

IC50 [1]: 0.348 nM
EC50 (pM), DR3 Jurkat reporter [2]: 141 pM
Signal (FLU) [2]: 2.75e+06 FLU
Kd (DR3-8i [3]): 0.225 nM
Kd (DR3-8i [4]): 0.0956 nM
Kd (DR3-8i [5]): 0.16 nM
B4: VHg6/VLg13 (antibody, human IgG1, V domains shown)
VH: B3 VH with V5Q, S49A, S75A, K76R, T78S, S92A, Q115R
VL: DIQMTQSPSSLSASVGDRVTITCRASESVEFSGTSLMQWYQQKPGKAPKLLIYAASNVESGVPSRFSGSGSGTDFTFTISSLQPEDIATYYCQQSRKLPYTFGQGTKLEIK
notes: human IgG1

IC50 [1]: 0.287 nM
EC50 (pM), DR3 Jurkat reporter [2]: 130 pM
Signal (FLU) [2]: 2.45e+06 FLU
Kd (DR3-8i [3]): 0.19 nM
Kd (DR3-8i [4]): 0.0999 nM
Kd (DR3-8i [5]): 0.145 nM
B5: VHg6/VLg11 (antibody, human IgG1, V domains shown)
VH: B3 VH with V5Q, S49A, S75A, K76R, T78S, S92A, Q115R
VL: B3 VL
notes: human IgG1

— WO2025083273A1 (dated 2025)
